This assay addresses T1, MAL-Myc-tagged Cdc18 wild type (bacterial recombinant) (S. pombe, UniProt P41411 1-577).
T1 sequence (looked up): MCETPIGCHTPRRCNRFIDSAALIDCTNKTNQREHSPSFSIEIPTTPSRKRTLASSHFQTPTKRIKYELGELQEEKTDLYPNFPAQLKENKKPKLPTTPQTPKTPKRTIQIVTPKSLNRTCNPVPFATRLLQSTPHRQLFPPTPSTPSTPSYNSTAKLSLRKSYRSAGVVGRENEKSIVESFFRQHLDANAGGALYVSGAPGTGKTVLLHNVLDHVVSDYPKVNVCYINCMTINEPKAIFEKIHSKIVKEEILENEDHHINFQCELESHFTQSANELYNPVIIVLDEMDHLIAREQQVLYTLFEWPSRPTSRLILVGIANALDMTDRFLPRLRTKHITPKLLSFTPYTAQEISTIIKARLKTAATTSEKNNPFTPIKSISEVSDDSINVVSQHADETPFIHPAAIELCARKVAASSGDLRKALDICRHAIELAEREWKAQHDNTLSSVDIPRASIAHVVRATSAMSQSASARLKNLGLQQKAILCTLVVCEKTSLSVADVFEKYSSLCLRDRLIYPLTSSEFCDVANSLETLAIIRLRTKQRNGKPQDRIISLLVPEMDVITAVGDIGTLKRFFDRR
Description: pull-down.

B1: 6his-FLAG-Swi6 wild type (bacterial recombinant) (natural protein, S. pombe, UniProt P40381 1-328, looked up)
chain: MKKGGVRSYRRSSTSKRSVIDDDSEPELPSMTKEAIASHKADSGSSDNEVESDHESKSSSKKLKENAKEEEGGEEEEEDEYVVEKVLKHRMARKGGGYEYLLKWEGYDDPSDNTWSSEADCSGCKQLIEAYWNEHGGRPEPSKRKRTARPKKPEAKEPSPKSRKTDEDKHDKDSNEKIEDVNEKTIKFADKSQEEFNENGPPSGQPNGHIESDNESKSPSQKESNESEDIQIAETPSNVTPKKKPSPEVPKLPDNRELTVKQVENYDSWEDLVSSIDTIERKDDGTLEIYLTWKNGAISHHPSTITNKKCPQKMLQFYESHLTFRENE
As to B1, the binding result is recorded as “binds”.

(Values after PMC3025051 (Cell cycle (Georgetown, Tex.), 2011).)
